This series deals with Toxin B (Clostridium difficile, UniProt P18177 1-2366). Briefly: SPR (single cycle kinetics, 1:1 model); […] (pH not stated); […]; SPR temperature not stated. As to conditions: protein: commercial.

Results on one molecule are retold here after article PMC4334984, “In Vitro Selection of a Single-Stranded DNA Molecular Recognition Element against Clostridium difficile Toxin B and Sensitive Detection in Human Fecal Matter”.

For orientation: Kd means the equilibrium constant for the complex coming apart. A low value points to a tighter complex.

Toxin B, sequence (P18177 whole entry): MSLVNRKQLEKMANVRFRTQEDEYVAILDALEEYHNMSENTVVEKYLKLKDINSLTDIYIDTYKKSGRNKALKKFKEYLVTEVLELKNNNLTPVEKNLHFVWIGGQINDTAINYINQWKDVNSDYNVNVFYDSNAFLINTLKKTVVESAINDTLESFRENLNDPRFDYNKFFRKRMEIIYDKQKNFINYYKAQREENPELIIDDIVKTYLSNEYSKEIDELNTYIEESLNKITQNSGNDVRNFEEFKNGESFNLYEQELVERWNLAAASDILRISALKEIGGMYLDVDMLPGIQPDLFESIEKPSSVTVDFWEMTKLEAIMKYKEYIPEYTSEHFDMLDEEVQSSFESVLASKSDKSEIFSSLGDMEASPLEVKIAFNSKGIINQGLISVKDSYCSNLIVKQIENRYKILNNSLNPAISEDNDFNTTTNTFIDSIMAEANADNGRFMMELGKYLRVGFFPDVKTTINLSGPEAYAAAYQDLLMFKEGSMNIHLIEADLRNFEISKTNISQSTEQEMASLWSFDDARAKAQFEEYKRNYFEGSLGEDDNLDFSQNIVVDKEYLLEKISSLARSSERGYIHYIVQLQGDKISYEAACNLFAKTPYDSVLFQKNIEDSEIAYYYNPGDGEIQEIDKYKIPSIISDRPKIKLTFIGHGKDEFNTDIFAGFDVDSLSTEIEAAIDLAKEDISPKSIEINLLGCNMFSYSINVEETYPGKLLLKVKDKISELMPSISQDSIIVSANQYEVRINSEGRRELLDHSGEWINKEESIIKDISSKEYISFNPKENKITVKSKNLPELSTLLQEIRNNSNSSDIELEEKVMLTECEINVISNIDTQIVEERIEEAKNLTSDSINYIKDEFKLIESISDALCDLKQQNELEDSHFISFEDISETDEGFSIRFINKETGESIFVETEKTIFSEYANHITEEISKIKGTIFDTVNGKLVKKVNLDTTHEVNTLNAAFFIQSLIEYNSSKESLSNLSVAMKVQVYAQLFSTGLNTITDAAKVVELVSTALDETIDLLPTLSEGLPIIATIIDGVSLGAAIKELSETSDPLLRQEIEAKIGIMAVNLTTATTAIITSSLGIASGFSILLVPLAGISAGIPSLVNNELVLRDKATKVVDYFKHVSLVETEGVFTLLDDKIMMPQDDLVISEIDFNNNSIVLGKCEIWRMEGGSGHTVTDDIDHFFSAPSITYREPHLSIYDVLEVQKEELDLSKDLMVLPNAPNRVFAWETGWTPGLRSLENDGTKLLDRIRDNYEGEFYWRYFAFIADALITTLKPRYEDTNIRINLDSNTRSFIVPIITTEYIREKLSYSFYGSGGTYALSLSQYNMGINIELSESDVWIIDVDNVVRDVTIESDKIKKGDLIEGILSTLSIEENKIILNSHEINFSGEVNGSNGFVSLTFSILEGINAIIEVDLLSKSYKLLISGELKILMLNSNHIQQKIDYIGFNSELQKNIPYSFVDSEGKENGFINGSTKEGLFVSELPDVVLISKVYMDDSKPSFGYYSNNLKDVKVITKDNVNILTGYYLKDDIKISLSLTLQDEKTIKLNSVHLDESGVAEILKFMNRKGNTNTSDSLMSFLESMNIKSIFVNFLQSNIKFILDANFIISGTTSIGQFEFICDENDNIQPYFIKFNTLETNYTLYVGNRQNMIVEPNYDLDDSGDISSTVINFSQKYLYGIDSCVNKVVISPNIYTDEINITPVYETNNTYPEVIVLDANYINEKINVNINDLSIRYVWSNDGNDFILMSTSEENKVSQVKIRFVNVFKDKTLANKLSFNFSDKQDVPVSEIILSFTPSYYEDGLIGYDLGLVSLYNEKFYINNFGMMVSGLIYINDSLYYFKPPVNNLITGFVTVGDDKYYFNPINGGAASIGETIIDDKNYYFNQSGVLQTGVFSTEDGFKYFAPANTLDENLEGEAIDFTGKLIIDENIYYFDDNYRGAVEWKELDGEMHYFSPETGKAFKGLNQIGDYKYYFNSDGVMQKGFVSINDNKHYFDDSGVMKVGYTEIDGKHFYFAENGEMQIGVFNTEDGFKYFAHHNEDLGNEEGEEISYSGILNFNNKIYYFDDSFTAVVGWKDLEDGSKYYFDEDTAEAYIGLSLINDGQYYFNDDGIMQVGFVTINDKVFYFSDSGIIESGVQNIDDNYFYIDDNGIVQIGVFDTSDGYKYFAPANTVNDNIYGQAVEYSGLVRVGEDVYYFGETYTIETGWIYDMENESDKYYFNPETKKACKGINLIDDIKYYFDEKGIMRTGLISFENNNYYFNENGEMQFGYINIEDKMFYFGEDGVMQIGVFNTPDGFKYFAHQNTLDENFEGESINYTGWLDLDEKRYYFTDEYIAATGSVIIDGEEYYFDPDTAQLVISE

B1: R12.69 (SPR) (ssDNA)
DNA: TGTACCGTCTGAGCGATTCGTACCCTCGCTAATGCTGCTTGATGTGTGGCCTCGAATAGCCAGTCAGTGTTAAGGAGTGC
modifications: 5'-amino-C6
Consider B1, for which the Kd was found to be 47.3 ± 13.7 nM.
